# Literature values, collected in article PMC5067215.
# Biological target: CD74 (Homo sapiens) (UniProt P04233)
# Sequence of UniProt P04233 (P04233 73-296): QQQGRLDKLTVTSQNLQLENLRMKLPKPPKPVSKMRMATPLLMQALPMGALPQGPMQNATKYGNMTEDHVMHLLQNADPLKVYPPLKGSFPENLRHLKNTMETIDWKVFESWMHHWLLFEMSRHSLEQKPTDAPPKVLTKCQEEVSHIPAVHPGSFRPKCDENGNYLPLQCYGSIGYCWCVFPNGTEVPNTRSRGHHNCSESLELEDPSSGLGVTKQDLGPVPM
substance,measurement,value
D-DT (from UniProt P30046),Kd,5.42 nM
